Bridges are numbered along the chain shown (N, C = ends). Where no end group is shown, it is not given here.
T1: EGFR peptide 287-302 (mAb806 peptide epitope) (human, disulfide 1-16)
T1 peptide: CGADSYEMEEDGVRKC


Key:
[1] = target: wtEGFR-FLAG (human) (UniProt P00533); assay: FACS, Ba/F3 cells; reference M2 anti-FLAG
[2] = target: C271A/C283A EGFR mutant (human) (UniProt P00533); assay: FACS, Ba/F3 cells, four clones; reference M2 anti-FLAG
[3] = target: wild-type epidermal growth factor receptor (wtEGFR) (human) (UniProt P00533); assay: Scatchard, A431 cells
[4] = target: T1, EGFR peptide 287-302 (mAb806 peptide …); assay: BIAcore, immobilised peptide, antibody 200 nM

| Molecule | ratio of antibody binding mAb 528/M2 (ratio of median fluorescence) [1] | ratio of antibody binding mAb 528/M2 (ratio of median fluorescence) [2] | receptors per cell (receptors per cell) [3] | maximal binding (RU) [4] [RU] |
| --- | --- | --- | --- | --- |
| 528 antibody | 1.37 | 1.08 | 2e+06 |  |
| mAb1133 (antibody, V domains shown, murine IgG2a; also called 1133 antibody; clone 1133) VH: DVQLQGSGPSLVKPSQSLSLTCTVTGYSITSDYAWNWIRQFPGNKLEWMGYISYSGNTRYNPSLRSRISITRDTSKNQFFLQLNSVTTEDTATYYCATAGRGFPYWGQGTLVTVSA VL: DILMTQSPSSMSVSLGDTVNITCHSSQDINSNIGWLQQKPGKSFKGLIYHGTNLDDGVPSRFSGSGSGADYSLTISSLESEDFADYYCVQYGQFPWTFGGGTKLEIKR |  |  |  | 800 |
